Data reported in the supplement of paper PMC9112550, “Optimization of the antimicrobial peptide Bac7 by deep mutational scanning” (BMC Biology, 2022).

System: Escherichia coli TOP10
Experiment: shrunken log2 fold change of peptide-encoding DNA abundance (4.5 h post-induction vs induction); higher = less antimicrobial activity (less host growth inhibition)
Settings: time post-induction: 4.5 h; library: site-saturation at positions 5, 18, 19, 20
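Also: peptides expressed intracellularly from a pBAD plasmid library in pooled LB shake-flask culture, induced with 0.3% L-arabinose, DNA abundance read by NGS, three biological replicates, DESeq2 with apeglm shrinkage.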

| Sequence | shrunken log2 fold change |
| --- | --- |
| RRIRKRPPRLPRPRPRPVCMPRP | 0.0492 |
| RRIRYRPPRLPRPRPRPIIPPRP | -0.825 |
| RRIRNRPPRLPRPRPRPHNMPRP | -1.06 |
| RRIRCRPPRLPRPRPRPIRSPRP | -0.389 |
| RRIRYRPPRLPRPRPRPWGEPRP | -0.102 |
| RRIRNRPPRLPRPRPRPHARPRP | 0.187 |
| RRIRHRPPRLPRPRPRPICVPRP | 0.0683 |
| RRIRFRPPRLPRPRPRPGYTPRP | -0.427 |
| RRIRHRPPRLPRPRPRPNSTPRP | -1.48 |
| RRIRTRPPRLPRPRPRPIDLPRP | -1.07 |
| RRIRDRPPRLPRPRPRPVINPRP | -0.0846 |
| RRIRIRPPRLPRPRPRPWRPPRP | 0.145 |
| RRIRTRPPRLPRPRPRPKSTPRP | 0.0437 |
| RRIRLRPPRLPRPRPRPQLGPRP | -0.0132 |
| RRIRTRPPRLPRPRPRPKCYPRP | -0.0601 |
| RRIRFRPPRLPRPRPRPIAWPRP | -0.0725 |
| RRIRGRPPRLPRPRPRPMRMPRP | 1.4 |
| RRIRMRPPRLPRPRPRPKTRPRP | 0.994 |
| RRIRVRPPRLPRPRPRPSPLPRP | -0.0757 |
| RRIRPRPPRLPRPRPRPDEQPRP | 0.318 |
| RRIRWRPPRLPRPRPRPSQHPRP | 0.0667 |
| RRIRHRPPRLPRPRPRPEQFPRP | 0.000995 |
| RRIRKRPPRLPRPRPRPYHAPRP | 0.0039 |
| RRIRHRPPRLPRPRPRPVHYPRP | -0.495 |
| RRIRFRPPRLPRPRPRPTVMPRP | -0.0812 |

| Sequence | shrunken log2 fold change |
| --- | --- |
| RRIRMRPPRLPRPRPRPLAMPRP | 0.548 |
| RRIRARPPRLPRPRPRPENWPRP | 0.569 |
| RRIRERPPRLPRPRPRPRDIPRP | -0.0401 |
| RRIRTRPPRLPRPRPRPSPAPRP | 0.133 |
| RRIRTRPPRLPRPRPRPEIFPRP | -0.303 |
| RRIRRRPPRLPRPRPRPNDDPRP | 0.0687 |
| RRIRLRPPRLPRPRPRPTAKPRP | 0.134 |
| RRIRSRPPRLPRPRPRPMRYPRP | 0.215 |
| RRIRERPPRLPRPRPRPVYKPRP | -0.348 |
| RRIRARPPRLPRPRPRPGSWPRP | 0.759 |
| RRIRLRPPRLPRPRPRPPDFPRP | -0.0501 |
| RRIRCRPPRLPRPRPRPMMHPRP | -0.175 |
| RRIRHRPPRLPRPRPRPVGEPRP | 0.053 |
| RRIRHRPPRLPRPRPRPEHVPRP | 0.0342 |
| RRIRYRPPRLPRPRPRPNNRPRP | -0.00509 |
| RRIRKRPPRLPRPRPRPHPQPRP | 0.223 |
| RRIRARPPRLPRPRPRPGHIPRP | 0.0195 |
| RRIRFRPPRLPRPRPRPQQDPRP | -0.24 |
| RRIRTRPPRLPRPRPRPQMVPRP | -0.37 |
| RRIRYRPPRLPRPRPRPGIKPRP | -0.311 |
| RRIRKRPPRLPRPRPRPNCRPRP | 0.00408 |
| RRIRRRPPRLPRPRPRPFYHPRP | 0.0115 |
| RRIRDRPPRLPRPRPRPDWWPRP | 0.0503 |
| RRIRWRPPRLPRPRPRPDRQPRP | -0.018 |
| RRIRQRPPRLPRPRPRPREKPRP | 0.158 |

| Sequence | shrunken log2 fold change |
| --- | --- |
| RRIRYRPPRLPRPRPRPYLQPRP | -1.9 |
| RRIRQRPPRLPRPRPRPWVMPRP | -0.0363 |
| RRIRIRPPRLPRPRPRPGIRPRP | -0.0416 |
| RRIRERPPRLPRPRPRPGGMPRP | -0.02 |
| RRIRVRPPRLPRPRPRPISAPRP | 1.18 |
| RRIRYRPPRLPRPRPRPNRMPRP | -0.22 |
| RRIRERPPRLPRPRPRPLLLPRP | -0.305 |
| RRIRWRPPRLPRPRPRPRTLPRP | 0.565 |
| RRIRPRPPRLPRPRPRPIPYPRP | -0.384 |
| RRIRKRPPRLPRPRPRPITCPRP | 0.0162 |
| RRIRKRPPRLPRPRPRPRDCPRP | 0.306 |
| RRIRARPPRLPRPRPRPHTMPRP | -0.0952 |
| RRIRCRPPRLPRPRPRPIRIPRP | 0.0952 |
| RRIRRRPPRLPRPRPRPFIMPRP | -0.251 |
| RRIRVRPPRLPRPRPRPVTRPRP | 0.0259 |
| RRIRHRPPRLPRPRPRPFQPPRP | -0.135 |
| RRIRVRPPRLPRPRPRPYDHPRP | -0.347 |
| RRIRKRPPRLPRPRPRPGPIPRP | 0.204 |
| RRIRERPPRLPRPRPRPSCGPRP | 0.0151 |
| RRIRERPPRLPRPRPRPVDYPRP | 0.0839 |
| RRIRVRPPRLPRPRPRPMADPRP | -0.0473 |
| RRIRHRPPRLPRPRPRPAMWPRP | 0.00652 |
| RRIRARPPRLPRPRPRPYQCPRP | -0.44 |
| RRIRIRPPRLPRPRPRPCCHPRP | -0.486 |
| RRIRARPPRLPRPRPRPFDPPRP | 0.0109 |

| Sequence | shrunken log2 fold change |
| --- | --- |
| RRIRPRPPRLPRPRPRPTVSPRP | 0.433 |
| RRIRERPPRLPRPRPRPEVSPRP | 0.0769 |
| RRIRLRPPRLPRPRPRPTKNPRP | 0.00698 |
| RRIRGRPPRLPRPRPRPMMKPRP | 0.591 |
| RRIRNRPPRLPRPRPRPGAWPRP | 0.0927 |
| RRIRQRPPRLPRPRPRPYPKPRP | 0.00727 |
| RRIRVRPPRLPRPRPRPFQNPRP | 0.00707 |
| RRIRERPPRLPRPRPRPIKRPRP | -0.171 |
| RRIRHRPPRLPRPRPRPIQYPRP | -0.122 |
| RRIRMRPPRLPRPRPRPTIWPRP | 0.52 |
| RRIRQRPPRLPRPRPRPSKLPRP | -0.401 |
| RRIRTRPPRLPRPRPRPCYGPRP | -0.146 |
| RRIRRRPPRLPRPRPRPEEQPRP | 0.231 |
| RRIRMRPPRLPRPRPRPSAIPRP | 0.476 |
| RRIRMRPPRLPRPRPRPCAKPRP | 0.207 |
| RRIRSRPPRLPRPRPRPHHMPRP | -1.11 |
| RRIRDRPPRLPRPRPRPPLEPRP | 0.699 |
| RRIRERPPRLPRPRPRPNADPRP | -0.0389 |
| RRIRSRPPRLPRPRPRPTFNPRP | -0.366 |
| RRIRPRPPRLPRPRPRPYMGPRP | -0.659 |
| RRIRDRPPRLPRPRPRPHETPRP | -0.0736 |
| RRIRMRPPRLPRPRPRPMPNPRP | 0.154 |
| RRIRWRPPRLPRPRPRPSLIPRP | -0.574 |
| RRIRWRPPRLPRPRPRPGEEPRP | 0.387 |
| RRIRPRPPRLPRPRPRPPNRPRP | 0.29 |

| Sequence | shrunken log2 fold change |
| --- | --- |
| RRIRKRPPRLPRPRPRPCVEPRP | 0.13 |
| RRIRERPPRLPRPRPRPMPNPRP | -0.172 |
| RRIRSRPPRLPRPRPRPMFSPRP | -0.49 |
| RRIRQRPPRLPRPRPRPRNYPRP | 0.034 |
| RRIRWRPPRLPRPRPRPTQLPRP | 0.0699 |
| RRIRTRPPRLPRPRPRPDRWPRP | 0.0353 |
| RRIRRRPPRLPRPRPRPAIHPRP | 0.131 |
| RRIRHRPPRLPRPRPRPKAYPRP | 0.0124 |
| RRIRDRPPRLPRPRPRPDMSPRP | -0.0165 |
| RRIRIRPPRLPRPRPRPGTAPRP | -0.0164 |
| RRIRKRPPRLPRPRPRPPCGPRP | 0.614 |
| RRIRNRPPRLPRPRPRPQFTPRP | -0.259 |
| RRIRWRPPRLPRPRPRPLYGPRP | -0.369 |
| RRIRKRPPRLPRPRPRPYNKPRP | -0.626 |
| RRIRSRPPRLPRPRPRPHDMPRP | -0.335 |
| RRIRFRPPRLPRPRPRPGGKPRP | 0.228 |
| RRIRNRPPRLPRPRPRPDKRPRP | -0.0491 |
| RRIRGRPPRLPRPRPRPEHVPRP | 0.0775 |
| RRIRPRPPRLPRPRPRPKQCPRP | 0.147 |
| RRIRSRPPRLPRPRPRPVGDPRP | 0.0704 |
| RRIRVRPPRLPRPRPRPMYRPRP | 0.0262 |
| RRIRYRPPRLPRPRPRPVEHPRP | -0.0137 |
| RRIRPRPPRLPRPRPRPKNNPRP | -0.475 |
| RRIRMRPPRLPRPRPRPEVKPRP | 2.97 |
| RRIRQRPPRLPRPRPRPTGFPRP | 0.051 |

| Sequence | shrunken log2 fold change |
| --- | --- |
| RRIRERPPRLPRPRPRPDWCPRP | 0.0337 |
| RRIRTRPPRLPRPRPRPEEFPRP | -0.0783 |
| RRIRIRPPRLPRPRPRPEHIPRP | -0.142 |
| RRIRDRPPRLPRPRPRPHDKPRP | 0.0278 |
| RRIRRRPPRLPRPRPRPHACPRP | 0.192 |
| RRIRTRPPRLPRPRPRPTRPPRP | 0.614 |
| RRIRYRPPRLPRPRPRPWWSPRP | -0.0117 |
| RRIRWRPPRLPRPRPRPFEKPRP | 0.0683 |
| RRIRHRPPRLPRPRPRPNMQPRP | -0.0674 |
| RRIRKRPPRLPRPRPRPIFLPRP | 0.0688 |
| RRIRPRPPRLPRPRPRPQCWPRP | 0.0194 |
| RRIRTRPPRLPRPRPRPLWRPRP | 0.00366 |
| RRIRYRPPRLPRPRPRPWPEPRP | -0.0592 |
| RRIRKRPPRLPRPRPRPLWEPRP | 0.163 |
| RRIRMRPPRLPRPRPRPPWHPRP | 0.438 |
| RRIRQRPPRLPRPRPRPYSSPRP | -0.751 |
| RRIRQRPPRLPRPRPRPRNDPRP | -0.485 |
| RRIRARPPRLPRPRPRPFTRPRP | 0.105 |
| RRIRTRPPRLPRPRPRPQKPPRP | -0.0591 |
| RRIRARPPRLPRPRPRPRNGPRP | 0.566 |
| RRIRYRPPRLPRPRPRPYHYPRP | -0.556 |
| RRIRIRPPRLPRPRPRPHSAPRP | -0.143 |
| RRIRLRPPRLPRPRPRPTKYPRP | -0.47 |
| RRIRIRPPRLPRPRPRPIIYPRP | -0.396 |
| RRIRIRPPRLPRPRPRPSPQPRP | -0.512 |
